{"source": "paper PMC9220312", "molecular_target": "mouse thrombomodulin (endogenous, lung) (mouse (endogenous in mouse lung)) (UniProt P15306)", "sequence (P15306 17-577)": "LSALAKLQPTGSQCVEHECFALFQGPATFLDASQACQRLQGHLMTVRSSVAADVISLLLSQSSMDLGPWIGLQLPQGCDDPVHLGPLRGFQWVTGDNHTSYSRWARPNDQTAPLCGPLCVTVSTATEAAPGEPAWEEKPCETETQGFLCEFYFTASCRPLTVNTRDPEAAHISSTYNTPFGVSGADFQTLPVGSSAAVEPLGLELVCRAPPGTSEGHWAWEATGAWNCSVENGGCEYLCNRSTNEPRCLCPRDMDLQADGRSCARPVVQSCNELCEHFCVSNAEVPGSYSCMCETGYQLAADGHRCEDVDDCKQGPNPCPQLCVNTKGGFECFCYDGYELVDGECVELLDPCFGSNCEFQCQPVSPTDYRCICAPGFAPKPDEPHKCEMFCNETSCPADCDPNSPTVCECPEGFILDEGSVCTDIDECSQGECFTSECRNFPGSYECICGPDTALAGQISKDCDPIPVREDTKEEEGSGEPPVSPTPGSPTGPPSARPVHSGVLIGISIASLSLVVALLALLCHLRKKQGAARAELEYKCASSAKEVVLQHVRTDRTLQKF"}
{"substance": "recombinant human His-tagged fragment of Angiopoietin-2 (ab220589, Abcam) (from UniProt O15123 19-496) (domain or fragment)", "values": [{"measurement": "tail bleeding time in mice 2 h after i.p. injection of 8 nmol human ANGPT2", "result": 50, "unit": "%"}]}
